Measurements as given in IntAct's records for PubMed 16983070.

B1: Rho guanine nucleotide exchange factor 7 (Homo sapiens), Q14155 (parent)
chain: MNSAEQTVTWLITLGVLESPKKTISDPEGFLQASLKDGVVLCRLLERLLPGTIEKVYPEPRSESECLSNIREFLRGCGASLRLELLFPPSQPPQHLVTTILLSASTFDANDLYQGQNFNKVLSSLVTLNKVTADIGLGSDSVCARPSSHRIKSFDSLGSQSLHTRTSKLFQGQYRSLDMTDNSNNQLVVRAKFNFQQTNEDELSFSKGDVIHVTRVEEGGWWEGTLNGRTGWFPSNYVREVKASEKPVSPKSGTLKSPPKGFDTTAINKSYYNVVLQNILETENEYSKELQTVLSTYLRPLQTSEKLSSANISYLMGNLEEICSFQQMLVQSLEECTKLPEAQQRVGGCFLNLMPQMKTLYLTYCANHPSAVNVLTEHSEELGEFMETKGASSPGILVLTTGLSKPFMRLDKYPTLLKELERHMEDYHTDRQDIQKSMAAFKNLSAQCQEVRKRKELELQILTEAIRNWEGDDIKTLGNVTYMSQVLIQCAGSEEKNERYLLLFPNVLLMLSASPRMSGFIYQGKLPTTGMTITKLEDSENHRNAFEISGSMIERILVSCNNQQDLQEWVEHLQKQTKVTSVGNPTIKPHSVPSHTLPSHPVTPSSKHADSKPAPLTPAYHTLPHPSHHGTPHTTINWGPLEPPKTPKPWSLSCLRPAPPLRPSAALCYKEDLSKSPKTMKKLLPKRKPERKPSDEEFASRKSTAALEEDAQILKVIEAYCTSAKTRQTLNSTWQGTDLMHNHVLADDDQPSLDSLGRRSSLSRLEPSDLSEDSDYDSIWTAHSYRMGSTSRKSCCSYISHQN
partner: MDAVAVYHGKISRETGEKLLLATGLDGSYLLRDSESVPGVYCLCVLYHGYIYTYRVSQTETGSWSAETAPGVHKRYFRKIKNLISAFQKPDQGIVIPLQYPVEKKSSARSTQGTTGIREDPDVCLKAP
B2: SH2 domain-containing protein 1A (Homo sapiens), O60880-1 (parent)
chain: B1 partner

Variants of: B1
Details: with SH2D1A

Variant	effect of a mutation on the interaction
W221P;W222G	disrupting interaction strength

Variants of: B2
Details: with arhg7_human ARHGEF7, Q14155

Variant	effect of a mutation on the interaction
R78A	disrupting interaction strength
